By Kd is commonly meant the constant that tells how readily two partners part at equilibrium.

The target in this assay is Full-length NOD2 (purified recombinant, tags removed) (UniProt Q9HC29 1-1040). Kind of assay: SPR. Background: SPR reads the build-up and loss of mass on a sensor chip optically.
Full-length NOD2 (purified recombinant, tags removed), sequence (Q9HC29 whole entry): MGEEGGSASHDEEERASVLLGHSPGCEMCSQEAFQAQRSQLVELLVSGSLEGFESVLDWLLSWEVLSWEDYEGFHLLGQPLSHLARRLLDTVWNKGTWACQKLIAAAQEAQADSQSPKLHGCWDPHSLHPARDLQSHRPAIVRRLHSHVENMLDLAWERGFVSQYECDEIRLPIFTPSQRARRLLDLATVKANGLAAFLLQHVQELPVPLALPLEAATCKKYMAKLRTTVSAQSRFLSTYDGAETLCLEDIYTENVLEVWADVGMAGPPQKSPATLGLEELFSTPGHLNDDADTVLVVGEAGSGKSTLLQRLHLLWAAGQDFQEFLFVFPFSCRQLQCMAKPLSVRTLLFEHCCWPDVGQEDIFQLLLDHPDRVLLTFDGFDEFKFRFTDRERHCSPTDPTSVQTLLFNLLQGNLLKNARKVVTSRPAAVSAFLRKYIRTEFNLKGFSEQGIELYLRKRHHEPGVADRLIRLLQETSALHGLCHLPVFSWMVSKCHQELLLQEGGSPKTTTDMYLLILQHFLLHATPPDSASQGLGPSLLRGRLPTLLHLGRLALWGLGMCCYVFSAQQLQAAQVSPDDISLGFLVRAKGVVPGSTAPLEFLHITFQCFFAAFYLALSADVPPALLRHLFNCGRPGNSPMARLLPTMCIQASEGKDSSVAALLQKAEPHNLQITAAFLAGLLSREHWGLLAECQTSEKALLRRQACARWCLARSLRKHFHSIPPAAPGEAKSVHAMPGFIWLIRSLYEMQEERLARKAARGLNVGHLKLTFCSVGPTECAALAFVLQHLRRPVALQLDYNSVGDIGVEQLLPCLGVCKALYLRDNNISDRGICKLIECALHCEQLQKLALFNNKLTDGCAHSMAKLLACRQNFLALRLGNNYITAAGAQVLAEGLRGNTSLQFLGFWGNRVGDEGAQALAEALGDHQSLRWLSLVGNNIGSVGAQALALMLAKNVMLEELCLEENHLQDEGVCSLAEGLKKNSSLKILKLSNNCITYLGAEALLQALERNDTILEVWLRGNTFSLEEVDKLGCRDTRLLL

B1: NOD2 CARDs (residues Met28-Arg227) (domain or fragment)
chain: MCSQEAFQAQRSQLVELLVSGSLEGFESVLDWLLSWEVLSWEDYEGFHLLGQPLSHLARRLLDTVWNKGTWACQKLIAAAQEAQADSQSPKLHGCWDPHSLHPARDLQSHRPAIVRRLHSHVENMLDLAWERGFVSQYECDEIRLPIFTPSQRARRLLDLATVKANGLAAFLLQHVQELPVPLALPLEAATCKKYMAKLR
On to B1, for which the Kd came out at 12.4 ± 0.58 µM.

The record behind these values is publication PMC3391102 (The Journal of Biological Chemistry, 2012).
